This is an account of results in paper PMC2791859.

The target in assay [1] is FcγRIa, recombinant extracellular domain (UniProt P12314). Kind of assay: SPR; Biacore 3000; extracellular domain of FcγRIa immobilized covalently or through enzymatic, site-directed biotinylation; antibody as analyte; kinetic analysis at pH 7.4. Background: SPR reads the build-up and loss of mass on a sensor chip optically.
Assay [2] has as its target FcRn, recombinant extracellular domain (UniProt P55899). The assay is described as follows: SPR; Biacore 3000; extracellular domain of FcRn immobilized covalently or through enzymatic, site-directed biotinylation; antibody as analyte; steady-state analysis at pH 6.0.
Chain of UniProt P55899 (P55899 whole entry, looked up, the tested form may be a part): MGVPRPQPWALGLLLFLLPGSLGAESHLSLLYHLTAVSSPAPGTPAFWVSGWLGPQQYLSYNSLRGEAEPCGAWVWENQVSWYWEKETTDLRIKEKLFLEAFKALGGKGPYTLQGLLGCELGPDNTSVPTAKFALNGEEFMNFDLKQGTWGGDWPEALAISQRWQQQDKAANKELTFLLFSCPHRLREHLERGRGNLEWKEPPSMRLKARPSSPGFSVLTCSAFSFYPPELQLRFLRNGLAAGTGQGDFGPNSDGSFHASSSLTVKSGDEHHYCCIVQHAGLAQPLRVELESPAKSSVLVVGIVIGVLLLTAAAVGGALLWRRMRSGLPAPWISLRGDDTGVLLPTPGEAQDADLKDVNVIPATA

Chain of UniProt P12314 (P12314 16-292): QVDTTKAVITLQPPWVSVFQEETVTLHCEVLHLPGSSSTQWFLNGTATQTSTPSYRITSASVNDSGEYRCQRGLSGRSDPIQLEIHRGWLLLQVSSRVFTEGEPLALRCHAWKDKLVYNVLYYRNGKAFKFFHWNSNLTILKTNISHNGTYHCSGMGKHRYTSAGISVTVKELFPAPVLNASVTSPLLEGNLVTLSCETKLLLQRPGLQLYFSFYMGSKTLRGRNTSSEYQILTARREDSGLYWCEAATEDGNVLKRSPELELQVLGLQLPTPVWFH

Take “human IgG1 antibody Variant FS (F241S F243S)”: in assay [1], the Kd (usually the constant that tells how readily two partners part at equilibrium) is 74 nM; the koff (in general, the first-order rate constant of dissociation) is 0.0021 s⁻¹; the kon (usually the rate constant with which the complex forms) was determined as 29000 M⁻¹ s⁻¹. Also, the Kd in assay [2] is 2700 nM.
